Literature values as cited in article PMC11283454 (Nature Communications, 2024).

B1: scATE1: Saccharomyces cerevisiae ATE1 (protein, UniProt P16639 1-503, looked up)
Arginyl-tRNA--protein …: MSDRFVIWAPSMHNEPAAKCGYCHGNKGGNMDQLFALDSWAHRYMNKMDVVKIENCTIGSFVEHMDVATYDRMCNMGFRRSGKFLYKVDPLRNCCRLYTIRTAPQELNMTKELKKCISRFATRITSEDYCPAAVASSDFVGKIVNAEMNSKTFYTRFEPALYSEEKYHLFVKYQEKVHQDYNNSPKSFKRFLCDTPFGPEAVLGTQESWEQLNNWQRMKPGEKLKHMGPVHECYYYEGKLIAITVSDILPSGISSVYFIWDPDYSKWSLGKLSALRDLAIIQRTNLQYYYLGYYIEDCPKMNYKANYGAEVLDVCHSKYIPLKPIQDMISRGKLFVIGEEETKVTKELYLVDSETGRGEGFPTDNVVKYKNIAEEIYGVGGCAFKSANESALELKELYGIPYEEEDLDTIYHLKEHNGHAPNGIPNVVPGLLPLWELLDIMQSGKITDLEGRLFLFEIETEGIRPLINFYSEPPNVKKRICDVIRLFGFETCMKAVILYSEQM
In the case of B1, the “Tm of scATE1” value is given as ~ 46 °C.
